Source: article PMC6426608
Positions count from the first letter of the chain named.

Tests used:
Experiment in all cases: EMSA
Details in all cases: EMSA: 40 ng probe in 20 ul of 10 mM Tris-HCl pH 7.4, 50 mM KCl, 5 mM MgCl2, 10% glycerol; room temperature 20 min; 6% PAGE, DNA dye
[1] = system: T1, RhpR (Pseudomonas savastanoi pv. phaseolicola 1448A), ORF:976030cf
T1 sequence: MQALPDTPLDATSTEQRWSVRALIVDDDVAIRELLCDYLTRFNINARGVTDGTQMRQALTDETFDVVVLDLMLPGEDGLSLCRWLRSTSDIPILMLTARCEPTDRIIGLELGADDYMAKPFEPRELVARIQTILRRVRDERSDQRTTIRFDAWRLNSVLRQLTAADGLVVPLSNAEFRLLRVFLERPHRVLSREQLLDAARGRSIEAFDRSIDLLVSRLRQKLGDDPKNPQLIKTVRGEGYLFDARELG

[2] = system: T2, RhpR D70A D70A (Pseudomonas savastanoi pv. phaseolicola 1448A), ORF:976030cf
T2 sequence: T1 sequence with D70A

[3] = system: T3, RhpR D70E D70E (Pseudomonas savastanoi pv. phaseolicola 1448A), ORF:976030cf
T3 sequence: T1 sequence with D70E

In the case of “TTCTCGAGTGAAATATCGACCTGAGGAAATTGCCCCTTTGATAATAGGACTCGCATGTATAATACCGGCCAAAACCGGACCAGCCGCCATTAACTTCTCTTCATGTAACGGCCATATCACCCCCGACTTGAACCGCCTTTTACTGCGTATATTTCGCGACGCTCCAGCACTGGAAACGCCCGGGATCCAA (double strand) [ccmA-ΔIR promoter]”, the binding [1] was “no binding”.

With “TTCTCGAGTGAAATATCGACCTGAGGAAATTGCCCCTTTGATAATAGGACTCGCATGTATAATACCGGCCAAAACCGGACCAGCCGCCATTAACTTCTCTTCATGTAACGGCCATATCACCCCCGACTTGAACCGCCTTTTACTGCGTATGTGTCTGTTTTGGTACATTTCGCGACGCTCCAGCACTGGAAACGCCCGGGATCCAA (double strand) [ccmA promoter]” the binding [1] was “binds”.

For “TTGGATCCAACACCCTATCCACTGAAGGTCTTGGCGGGCAAAAAACAAGCCGAGGATTATACCCGAGCTATGACCCTCGAGAA (double strand) [rpoD promoter]”, the binding [1] was “binds”.

In the case of “TTGGATCCGACGGACCCTCGTGGGGTGATAGCCCAAGCATCCGCCGTGTGCGAGGTACAACCATTGACCTGGCGCAATGAAGCAGCCTGATAGCAGACCGTTGGTCGAAGACTCTTCGGTCTACGTGTGCAGGGTGGCTGTTCTCGAGAA (double strand) [adhB-ΔIR promoter]”, the binding [1] was “no binding”.

“TTGGATCCGACGGACCCTCGTGGGTAGCTCGGATGCTTGGGTGATAGCCCAAGCATCCGCCGTGTGCGAGGTACAACCATTGACCTGGCGCAATGAAGCAGCCTGATAGCAGACCGTTGGTCGAAGACTCTTCGGTCTACGTGTGCAGGGTGGCTGTTCTCGAGAA (double strand) [adhB promoter]” was tested, and the binding [1] was “binds”.

“TTGGATCCGGAAACACCAGATGCATGAGCCGACGACGGTCATCCGTAAAAACCATGACCAAAGGTAACAAGTGTGCTGCTGCATTGTTGCAAAGTTCATACCTTTTTGGCAGACCCTTTGCCTGTCAGATGACATCCATGTGACGTGGGGCACTACACGGCTGCCAGACGGGTCAGATCCAGGTGTGTCGCGAGACCGCCAAGGTGAATGAGCAGGGCTCGGCTATGCTTGCTCGCGGCGTTACATATTCTTCCCCCACTGAACAGGTGACAGTCCTCGAGAA (double strand) [PSPPH_2590 promoter]” was tested, and the binding [2] was “binds more weakly” and the binding [3] was “binds”.

With “TTGGATCCGGAAACACCAGATGCATGAGCCGACGACGGTCATCCGTAAAAACCATGACCAAAGTGCATTGTTGCAAAGTTCATACCTTTTTGGCAGACCCTTTGCCTGTCAGATGACATCCATGTGACGTGGGGCACTACACGGCTGCCAGACGGGTCAGATCCAGGTGTGTCGCGAGACCGCCAAGGTGAATGAGCAGGGCTCGGCTATGCTTGCTCGCGGCGTTACATATTCTTCCCCCACTGAACAGGTGACAGTCCTCGAGAA (double strand) [PSPPH_2590-p-ΔIR]” the binding [3] was “no binding”.
